{
  "source": "patent US20050003347A1",
  "about": "“Domain-exchanged binding molecules, methods of use and methods of production” (priority 2003, published 2005)",
  "data": [
    {"biological_target": "HIV-1 gp120 JR-FL (HIV-1 (JR-FL))", "test": "ELISA, crude Fab on gp120JR-FL; apparent affinity wt/mutant x100%", "details": "not given", "units": {"% Affinity Relative to Wild Type": "%"}, "values": [
      {"compound": "Fab 2G12 mutant H D100bA", "% Affinity Relative to Wild Type": 52},
      {"compound": "Fab 2G12 mutant H D100dA", "% Affinity Relative to Wild Type": 120},
      {"compound": "Fab 2G12 mutant H E75A", "% Affinity Relative to Wild Type": 1.1},
      {"compound": "Fab 2G12 mutant H E76A", "% Affinity Relative to Wild Type": 103},
      {"compound": "Fab 2G12 mutant H F77A", "% Affinity Relative to Wild Type": 0.1},
      {"compound": "Fab 2G12 mutant H G96A", "% Affinity Relative to Wild Type": 20},
      {"compound": "Fab 2G12 mutant H H32A", "% Affinity Relative to Wild Type": 0.4},
      {"compound": "Fab 2G12 mutant H I19A", "% Affinity Relative to Wild Type": 0.5},
      {"compound": "Fab 2G12 mutant H K82bA", "% Affinity Relative to Wild Type": 51},
      {"compound": "Fab 2G12 mutant H K95A", "% Affinity Relative to Wild Type": 170},
      {"compound": "Fab 2G12 mutant H L74A", "% Affinity Relative to Wild Type": 130},
      {"compound": "Fab 2G12 mutant H L100A", "% Affinity Relative to Wild Type": 0.1},
      {"compound": "Fab 2G12 mutant H N100cA", "% Affinity Relative to Wild Type": 0.1},
      {"compound": "Fab 2G12 mutant H P113A", "% Affinity Relative to Wild Type": 0.1},
      {"compound": "Fab 2G12 mutant H P113S", "% Affinity Relative to Wild Type": 0.1},
      {"compound": "Fab 2G12 mutant H R39A", "% Affinity Relative to Wild Type": 130},
      {"compound": "Fab 2G12 mutant H R39Q", "% Affinity Relative to Wild Type": 170},
      {"compound": "Fab 2G12 mutant H R57A", "% Affinity Relative to Wild Type": 0.1},
      {"compound": "Fab 2G12 mutant H R83A", "% Affinity Relative to Wild Type": 59},
      {"compound": "Fab 2G12 mutant H S54A", "% Affinity Relative to Wild Type": 0.1},
      {"compound": "Fab 2G12 mutant H S100aA", "% Affinity Relative to Wild Type": 0.1},
      {"compound": "Fab 2G12 mutant H T33A", "% Affinity Relative to Wild Type": 2},
      {"compound": "Fab 2G12 mutant H T52aA", "% Affinity Relative to Wild Type": 190},
      {"compound": "Fab 2G12 mutant H T55A", "% Affinity Relative to Wild Type": 0.1},
      {"compound": "Fab 2G12 mutant H V84A", "% Affinity Relative to Wild Type": 0.1},
      {"compound": "Fab 2G12 mutant H Y56A", "% Affinity Relative to Wild Type": 2},
      {"compound": "Fab 2G12 mutant H Y79A", "% Affinity Relative to Wild Type": 0.1},
      {"compound": "Fab 2G12 mutant L G93A", "% Affinity Relative to Wild Type": 120},
      {"compound": "Fab 2G12 mutant L S28A", "% Affinity Relative to Wild Type": 0.1},
      {"compound": "Fab 2G12 mutant L W32A", "% Affinity Relative to Wild Type": 50}
    ]},
    {"tested_on": "Mab 2G12 binding to gp120JR-FL", "test": "Competition ELISA: inhibition of 2G12 binding to gp120JR-FL by carbohydrates", "set-up": "species or system HIV-1", "details": "2G12 1 μg/ml", "method": "(§1) Competition enzyme-linked immunosorbent assays (ELISAs) were performed to determine the relative inhibition constants of different carbohydrates on 2G12. GP120JR-FL was first captured onto microtiter plate wells (flat bottom, Costar type 3690; Corning Inc.). Subsequently serial dilutions of Man9GlcNAc2, Manα1-2Man, mannose, and other mono- and disaccharides were added to the wells in the presence of 2G12 (1 μg/ml). Subsequent blocking, washing, and detection steps were performed as described in (13).", "values": [
      {"compound": "O=C(CO)[C@@H](O)[C@H](O)[C@H](O)CO", "note": "[Fructose]", "inhibition of 2G12 binding to gp120 (in words)": "better inhibitor than mannose"}
    ]},
    {"tested_on": "Mab 2G12 binding to gp120JR-FL", "test": "Competition ELISA: inhibition of 2G12 binding to gp120JR-FL by carbohydrates", "set-up": "species or system HIV-1", "details": "relative to Manα1-2Man; 2G12 1 μg/ml", "method": "as §1", "values": [
      {"compound": "CC(=O)N[C@H]1[C@H](O[C@H]2[C@H](O)[C@@H](NC(C)=O)C(O)O[C@@H]2CO)O[C@H](CO)[C@@H](O[C@@H]2O[C@H](CO[C@H]3O[C@H](CO[C@H]4O[C@H](CO)[C@@H](O)[C@H](O)[C@@H]4O[C@H]4O[C@H](CO)[C@@H](O)[C@H](O)[C@@H]4O)[C@@H](O)[C@H](O[C@H]4O[C@H](CO)[C@@H](O)[C@H](O)[C@@H]4O[C@H]4O[C@H](CO)[C@@H](O)[C@H](O)[C@@H]4O)[C@@H]3O)[C@@H](O)[C@H](O[C@H]3O[C@H](CO)[C@@H](O)[C@H](O)[C@@H]3O[C@H]3O[C@H](CO)[C@@H](O)[C@H](O)[C@@H]3O[C@H]3O[C@H](CO)[C@@H](O)[C@H](O)[C@@H]3O)[C@@H]2O)[C@@H]1O", "note": "(stereo partly drawn) [Man9GlcNAc2]", "inhibition of Mab 2G12 binding to gp120JR-FL compared to the disaccharide Manα1-2Man": "over 50 fold"}
    ]},
    {"tested_on": "Mab 2G12 binding to gp120JR-FL", "test": "Competition ELISA: inhibition of 2G12 binding to gp120JR-FL by carbohydrates", "set-up": "species or system HIV-1", "details": "relative to mannose; 2G12 1 μg/ml", "method": "as §1", "values": [
      {"compound": "CC(=O)N[C@H]1[C@H](O[C@H]2[C@H](O)[C@@H](NC(C)=O)C(O)O[C@@H]2CO)O[C@H](CO)[C@@H](O[C@@H]2O[C@H](CO[C@H]3O[C@H](CO[C@H]4O[C@H](CO)[C@@H](O)[C@H](O)[C@@H]4O[C@H]4O[C@H](CO)[C@@H](O)[C@H](O)[C@@H]4O)[C@@H](O)[C@H](O[C@H]4O[C@H](CO)[C@@H](O)[C@H](O)[C@@H]4O[C@H]4O[C@H](CO)[C@@H](O)[C@H](O)[C@@H]4O)[C@@H]3O)[C@@H](O)[C@H](O[C@H]3O[C@H](CO)[C@@H](O)[C@H](O)[C@@H]3O[C@H]3O[C@H](CO)[C@@H](O)[C@H](O)[C@@H]3O[C@H]3O[C@H](CO)[C@@H](O)[C@H](O)[C@@H]3O)[C@@H]2O)[C@@H]1O", "note": "(stereo partly drawn) [Man9GlcNAc2]", "inhibition of Mab 2G12 binding to gp120JR-FL compared to mannose (relative IC50)": "over 200 fold"}
    ]}
  ]
}
